Values of other authors in paper PMC9214263.

Biological target: TNFα (Homo sapiens) (UniProt P01375)
Experiment: KinExA

TNFα (Homo sapiens), sequence (P01375 77-233): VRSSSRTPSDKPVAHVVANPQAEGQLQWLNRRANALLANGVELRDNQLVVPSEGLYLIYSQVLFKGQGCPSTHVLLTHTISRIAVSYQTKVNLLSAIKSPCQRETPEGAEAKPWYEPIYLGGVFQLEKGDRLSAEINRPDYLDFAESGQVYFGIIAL

infliximab
Kd: 4.2 pM
